This note sets out measurements from publication PMC6854852.

Series [1] has as its system T1, SAN8-rBraR (unphosphorylated) D96V (Staphylococcus aureus SAN8 (nisin A-resistant mutant of MW2)), ORF:7b46c191.
T1 sequence: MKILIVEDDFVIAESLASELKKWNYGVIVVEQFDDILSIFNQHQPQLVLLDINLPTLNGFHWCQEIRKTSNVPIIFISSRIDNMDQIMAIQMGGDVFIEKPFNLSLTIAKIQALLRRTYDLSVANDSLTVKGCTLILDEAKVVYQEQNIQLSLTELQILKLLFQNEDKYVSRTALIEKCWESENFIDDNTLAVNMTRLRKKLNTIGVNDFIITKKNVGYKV
Kind of series: competition. As to conditions: EMSA: 5 ng DIG-labeled DNA, rBraR (given as 50 mM) in DIG Gel Shift Kit 2nd Generation (Roche) buffer, 6% native PAGE; binding temperature and pH not stated …. (In general: In EMSA bound probe runs differently from free probe, usually more slowly.)

For series [2] the test system is unchanged. Kind of series: EMSA. As to conditions: EMSA: 5 ng DIG-labeled DNA, rBraR (given as 50 mM) in DIG Gel Shift Kit 2nd Generation (Roche) buffer, 6% native PAGE; binding temperature and pH not stated ….

For the sequence “ATCACTTAGAAAGCACCATTGCTTTTGTCTAATATGTACGATGAATCTGTATCCTCACTCAAAAATCTACTACGTAGCGATAGCTTTCAACTCTGTAAGGTTCAAACATTGAATTGTAAGTTTAGATAAAGGCTACTACTCCAAACATTATTTAAAATGAAATTAAATACAAAAGGAGTGAGACTATGACAATATTATCAGTGCAACATGTTTCAAAAACATACGG (double strand) [vraDE-F1]”, the binding entry in series [1] and in series [2] was “binds” throughout.
